B1: E-6C4 (antibody, V domains shown)
VH: QVQLQQWGPGLVKPSQTLSLTCTVSGGSINSGDYYWSWIRQPPGKGLESIGYIYYSGSTYYNPSLKSRVTISADTSKNQFSLKLTSVTAADTAVYYCARERVYSSSLDYWGQGTLVTVSS
VL: not shown
notes: Anti-EGFR human monoclonal antibody from RenLite mice with the common light chain
B2: E-6C4-M-2F11 (bispecific antibody, human IgG1, kappa)
heavy 1: not shown
heavy 2: EVQLVESGPGLVKPSETLSLTCTVSGGSISSNYWSWIRQPPGKGLEWIGYIYHSGSTNYNPSLKSRVTISVDTSKNQFSLKLSSVTAADTAVYFCARGPVSIFGVVKYIDLWGRGTLVTVSSASTKGPSVFPLAPSSKSTSGGTAALGCLVKDYFPEPVTVSWNSGALTSGVHTFPAVLQSSGLYSLSSVVTVPSSSLGTQTYICNVNHKPSNTKVDKKVEPKSCDKTHTCPPCPAPELLGGPSVFLFPPKPKDTLMISRTPEVTCVVVDVSHEDPEVKFNWYVDGVEVHNAKTKPREEQYNSTYRVVSVLTVLHQDWLNGKEYKCKVSNKALPAPIEKTISKAKGQPREPQVCTLPPSREEMTKNQVSLSCAVKGFYPSDIAVEWESNGQPENNYKTTPPVLDSDGSFFLVSKLTVDKSRWQQGNVFSCSVMHEALHNHYTQKSLSLSPGK
light: not shown
notes: 1+1 knobs-into-holes bispecific with common light chain; also called anti-EGFR/MET bispecific antibody E-6C4-M-2F11

Key:
Test in all cases: SPR (Biacore 8K, Protein A chip; His-tagged antigen as analyte; 1:1 Langmuir fit)
[1] = molecular target: fasEGFR-His (ACROBiosystems Inc., Cat #: EGR-C52H5) (monkey)
From the text: (§1) Dissociation was monitored for 400 seconds.

[2] = molecular target: T1, hMET-His (ACROBiosystems Inc., Cat #: MET-H5227) (human, UniProt P08581 25-932)
T1 construct: Bought reagent; also called human MET; not shown: His tag
T1 sequence (P08581 25-932 limits assumed): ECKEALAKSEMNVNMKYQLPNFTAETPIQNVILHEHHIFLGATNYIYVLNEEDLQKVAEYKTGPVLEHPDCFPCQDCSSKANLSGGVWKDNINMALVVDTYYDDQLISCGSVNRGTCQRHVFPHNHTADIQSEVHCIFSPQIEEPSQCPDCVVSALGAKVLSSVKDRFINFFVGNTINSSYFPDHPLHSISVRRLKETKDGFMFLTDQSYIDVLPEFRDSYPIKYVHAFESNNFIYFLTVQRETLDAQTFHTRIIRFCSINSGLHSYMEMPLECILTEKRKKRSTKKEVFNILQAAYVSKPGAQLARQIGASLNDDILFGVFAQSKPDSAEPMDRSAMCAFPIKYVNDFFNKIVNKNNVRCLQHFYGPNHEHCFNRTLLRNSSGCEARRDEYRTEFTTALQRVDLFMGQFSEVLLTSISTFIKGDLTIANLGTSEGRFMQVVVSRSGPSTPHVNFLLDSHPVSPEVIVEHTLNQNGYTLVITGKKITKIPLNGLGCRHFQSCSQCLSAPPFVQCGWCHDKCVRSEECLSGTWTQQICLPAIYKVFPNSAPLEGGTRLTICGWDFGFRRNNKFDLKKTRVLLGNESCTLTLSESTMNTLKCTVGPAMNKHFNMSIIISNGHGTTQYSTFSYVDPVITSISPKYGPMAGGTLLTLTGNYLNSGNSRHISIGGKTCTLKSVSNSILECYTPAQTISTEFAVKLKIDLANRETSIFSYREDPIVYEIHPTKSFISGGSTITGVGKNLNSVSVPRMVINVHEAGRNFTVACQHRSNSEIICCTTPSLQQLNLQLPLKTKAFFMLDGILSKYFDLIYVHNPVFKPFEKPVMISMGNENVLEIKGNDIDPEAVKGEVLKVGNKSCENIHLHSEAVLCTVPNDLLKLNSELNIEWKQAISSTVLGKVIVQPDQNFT
From the text: as §1

[3] = molecular target: T2, hEGFR-His (ACROBiosystems Inc., Cat #: EGR-H5222) (human, UniProt P00533 25-645)
T2 construct: Bought reagent; also called human EGFR; not shown: His tag
From the text: as §1

Row | Binder | Kd [1] [nM] | koff [1] [s⁻¹] | kon [1] [M⁻¹ s⁻¹] | Kd [2] [nM] | koff [2] [s⁻¹] | kon [2] [M⁻¹ s⁻¹] | Kd [3] [nM] | koff [3] [s⁻¹] | kon [3] [M⁻¹ s⁻¹]
1 | B1 | 158 | – | – | – | – | – | – | – | –
2 | B2 | 115 | 0.0198 | 172000 | 50.5 | 0.00187 | 37000 | 70.7 | 0.0215 | 304000
